Earlier results, collected in article PMC8297464.

Key:
[1] = target: Spike RBD RBD (SARS-CoV-2) (UniProt P0DTC2)
ACE2 (Homo sapiens) = ACE2 (Homo sapiens) (UniProt Q9BYF1)

Chain of Human defensin 5 (Q01523 63-94): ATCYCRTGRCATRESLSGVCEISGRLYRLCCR

## SBP1 α1 helix 23-mer (from UniProt Q9BYF1)
[1]
  Kd: 47 nM

## Human defensin 5 (from UniProt Q01523)
ACE2 (Homo sapiens)
  Kd: 39.3 nM
